Test results from patent US20220033501A1.

Tests used:
[1] = target: monkey TIM-3 on CHOK1 stable cell line (CHOK1-cTIM-3) (monkey); assay: FACS, CHOK1-cTIM-3 cells, 1.6 nM antibody
[2] = target: murine TIM-3 extracellular domain protein with hFc tag (mTIM-3-hFc) (mouse) (UniProt Q8VIM0); assay: ELISA, coated mouse TIM-3 ECD protein, 0.0667 nM antibody
[3] = target: monkey TIM-3 extracellular domain protein with hFc tag (cTIM-3-hFc) (monkey); assay: ELISA, coated monkey TIM-3 ECD protein, 6.6667 nM antibody
[4] = target: murine TIM-3 extracellular domain protein with hFc tag (mTIM-3-hFc) (mouse) (UniProt Q8VIM0); assay: ELISA, coated mouse TIM-3 ECD protein, 66.667 nM antibody
[5] = target: human TIM-3 extracellular domain protein with hFc tag (hTIM-3-hFc) (human) (UniProt Q8TDQ0); assay: FACS, blocking of hTIM-3-hFc binding to phosphatidylserine on apoptotic Jurkat cells, 66.667 nM antibody
[6] = target: human TIM-3 on CHOK1 stable cell line (CHOK1-hTIM-3) (human) (UniProt Q8TDQ0); assay: FACS, CHOK1-hTIM-3 cells, 8 nM antibody
[7] = target: monkey TIM-3 extracellular domain protein with hFc tag (cTIM-3-hFc) (monkey); assay: ELISA, coated monkey TIM-3 ECD protein, 66.667 nM antibody
[8] = target: monkey TIM-3 on CHOK1 stable cell line (CHOK1-cTIM-3) (monkey); assay: FACS, CHOK1-cTIM-3 cells, 0.32 nM antibody
[9] = target: human TIM-3 extracellular domain protein with hFc tag (hTIM-3-hFc) (human) (UniProt Q8TDQ0); assay: FACS, blocking of hTIM-3-hFc binding to phosphatidylserine on apoptotic Jurkat cells, 2.469 nM antibody
[10] = target: human TIM-3 extracellular domain protein with hFc tag (hTIM-3-hFc) (human) (UniProt Q8TDQ0); assay: ELISA, coated human TIM-3 ECD protein, 0.0001 nM antibody
[11] = target: human TIM-3 extracellular domain protein with hFc tag (hTIM-3-hFc) (human) (UniProt Q8TDQ0); assay: ELISA, coated human TIM-3 ECD protein, 0.6667 nM antibody
[12] = target: human TIM-3 extracellular domain protein with hFc tag (hTIM-3-hFc) (human) (UniProt Q8TDQ0); assay: FACS, blocking of hTIM-3-hFc binding to phosphatidylserine on apoptotic Jurkat cells, 0.274 nM antibody
[13] = target: human TIM-3 extracellular domain protein with hFc tag (hTIM-3-hFc) (human) (UniProt Q8TDQ0); assay: ELISA, coated human TIM-3 ECD protein, 0.0667 nM antibody
[14] = target: human TIM-3 extracellular domain protein with hFc tag (hTIM-3-hFc) (human) (UniProt Q8TDQ0); assay: ELISA, coated human TIM-3 ECD protein, 66.667 nM antibody
[15] = target: monkey TIM-3 on CHOK1 stable cell line (CHOK1-cTIM-3) (monkey); assay: FACS, CHOK1-cTIM-3 cells, 0.013 nM antibody
[16] = target: human TIM-3 extracellular domain protein with hFc tag (hTIM-3-hFc) (human) (UniProt Q8TDQ0); assay: FACS, blocking of hTIM-3-hFc binding to phosphatidylserine on apoptotic Jurkat cells, 0.823 nM antibody
[17] = target: monkey TIM-3 on CHOK1 stable cell line (CHOK1-cTIM-3) (monkey); assay: FACS, CHOK1-cTIM-3 cells, 0.064 nM antibody
[18] = target: monkey TIM-3 extracellular domain protein with hFc tag (cTIM-3-hFc) (monkey); assay: ELISA, coated monkey TIM-3 ECD protein, 0.0007 nM antibody
[19] = target: murine TIM-3 extracellular domain protein with hFc tag (mTIM-3-hFc) (mouse) (UniProt Q8VIM0); assay: ELISA, coated mouse TIM-3 ECD protein, 0.0067 nM antibody
[20] = target: human TIM-3 on CHOK1 stable cell line (CHOK1-hTIM-3) (human) (UniProt Q8TDQ0); assay: FACS, CHOK1-hTIM-3 cells, 0.064 nM antibody
[21] = target: monkey TIM-3 extracellular domain protein with hFc tag (cTIM-3-hFc) (monkey); assay: ELISA, coated monkey TIM-3 ECD protein, 0 nM antibody
[22] = target: human TIM-3 on CHOK1 stable cell line (CHOK1-hTIM-3) (human) (UniProt Q8TDQ0); assay: FACS, CHOK1-hTIM-3 cells, 0.32 nM antibody
[23] = target: murine TIM-3 extracellular domain protein with hFc tag (mTIM-3-hFc) (mouse) (UniProt Q8VIM0); assay: ELISA, coated mouse TIM-3 ECD protein, 0.0007 nM antibody
[24] = target: TIM-3 protein on human peripheral blood mononuclear lymphocytes (PBMC) (human) (UniProt Q8TDQ0); assay: cell-based or functional assay
[25] = target: monkey TIM-3 extracellular domain protein with hFc tag (cTIM-3-hFc) (monkey); assay: ELISA, coated monkey TIM-3 ECD protein, 0.0667 nM antibody
[26] = target: monkey TIM-3 extracellular domain protein with hFc tag (cTIM-3-hFc) (monkey); assay: ELISA, coated monkey TIM-3 ECD protein, 0.6667 nM antibody
[27] = target: monkey TIM-3 on CHOK1 stable cell line (CHOK1-cTIM-3) (monkey); assay: FACS, CHOK1-cTIM-3 cells, 40 nM antibody
[28] = target: human TIM-3 on CHOK1 stable cell line (CHOK1-hTIM-3) (human) (UniProt Q8TDQ0); assay: FACS, CHOK1-hTIM-3 cells, 0.013 nM antibody
[29] = target: human TIM-3 on CHOK1 stable cell line (CHOK1-hTIM-3) (human) (UniProt Q8TDQ0); assay: FACS, CHOK1-hTIM-3 cells, 1.6 nM antibody

Sequence of human TIM-3 on CHOK1 stable cell line (CHOK1-hTIM-3) (human) (Q8TDQ0 22-301 limits assumed): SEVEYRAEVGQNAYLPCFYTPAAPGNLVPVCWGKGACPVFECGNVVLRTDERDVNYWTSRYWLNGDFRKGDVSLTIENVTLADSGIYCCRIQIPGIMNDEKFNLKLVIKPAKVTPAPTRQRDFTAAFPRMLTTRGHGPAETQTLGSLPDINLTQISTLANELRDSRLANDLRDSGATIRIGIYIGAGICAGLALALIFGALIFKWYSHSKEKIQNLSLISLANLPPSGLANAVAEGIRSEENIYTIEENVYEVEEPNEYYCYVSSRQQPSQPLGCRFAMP
Sequence of TIM-3 protein on human peripheral blood mononuclear lymphocytes (PBMC) (human) (Q8TDQ0 22-301 limits assumed): as above
Sequence of murine TIM-3 extracellular domain protein with hFc tag (mTIM-3-hFc) (mouse) (Q8VIM0 other isoform, or with tags, fused parts or gaps): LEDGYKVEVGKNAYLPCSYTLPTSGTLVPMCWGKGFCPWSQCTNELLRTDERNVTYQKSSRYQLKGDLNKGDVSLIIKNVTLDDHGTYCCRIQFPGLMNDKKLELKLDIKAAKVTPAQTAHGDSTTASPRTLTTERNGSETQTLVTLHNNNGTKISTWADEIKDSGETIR
Sequence of human TIM-3 extracellular domain protein with hFc tag (hTIM-3-hFc) (human) (Q8TDQ0 22-200): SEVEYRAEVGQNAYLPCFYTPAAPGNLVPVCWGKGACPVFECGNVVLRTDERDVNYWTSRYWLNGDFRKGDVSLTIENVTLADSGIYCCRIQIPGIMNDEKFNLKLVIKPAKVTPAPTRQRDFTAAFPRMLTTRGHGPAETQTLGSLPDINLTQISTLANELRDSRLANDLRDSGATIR
Sequence of monkey TIM-3 extracellular domain protein with hFc tag (cTIM-3-hFc) (monkey) (chain, as listed by the source): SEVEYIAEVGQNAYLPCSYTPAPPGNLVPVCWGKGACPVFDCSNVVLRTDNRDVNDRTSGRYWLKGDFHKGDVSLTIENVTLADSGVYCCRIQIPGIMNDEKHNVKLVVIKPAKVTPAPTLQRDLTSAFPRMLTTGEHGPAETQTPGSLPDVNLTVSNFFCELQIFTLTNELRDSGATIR
Sequence of monkey TIM-3 on CHOK1 stable cell line (CHOK1-cTIM-3) (monkey) (chain, as listed by the source limits assumed): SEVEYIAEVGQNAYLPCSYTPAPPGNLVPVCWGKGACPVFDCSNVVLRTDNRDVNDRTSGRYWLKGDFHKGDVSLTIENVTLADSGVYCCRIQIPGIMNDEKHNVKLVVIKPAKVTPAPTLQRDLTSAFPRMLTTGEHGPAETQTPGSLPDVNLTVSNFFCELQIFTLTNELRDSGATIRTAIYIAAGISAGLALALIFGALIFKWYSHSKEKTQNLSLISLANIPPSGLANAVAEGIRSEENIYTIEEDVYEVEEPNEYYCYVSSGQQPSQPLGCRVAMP

human IgG control (antibody) showed a Mean fluorescence intensity [1] of 3.2, an OD450 [2] of 0.21 and an OD450 [3] of 0.18. For the same substance, the OD450 [4] was 0.73, the Inhibition ratio (%) [5] was 9.6% and the Mean fluorescence intensity [6] was 4.5. It also gave an OD450 [7] of 0.43, a Mean fluorescence intensity [8] of 3.1 and an Inhibition ratio (%) [9] of -3.9%. It also gave an OD450 [10] of 0.07, an OD450 [11] of 0.07 and an Inhibition ratio (%) [12] of -20%. The OD450 [13] was 0.07, the OD450 [14] was 0.14 and the Mean fluorescence intensity [15] was 2.8. For the same substance, the Inhibition ratio (%) [16] was 2.8%, the Mean fluorescence intensity [17] was 2.9 and the OD450 [18] was 0.14. The OD450 [19] was 0.21, the Mean fluorescence intensity [20] was 2.8 and the OD450 [21] was 0.13. It also gave a Mean fluorescence intensity [22] of 2.9, an OD450 [23] of 0.21 and an IFN-γ production (donor X); antibody 0.1 µg/ml, N = 1 [24] of 2040 pg/mL. For the same substance, the IFN-γ production (donor X); antibody 0.1 µg/ml, N = 2 [24] was 2060 pg/mL, the IFN-γ production (donor X); antibody 1 µg/ml, N = 1 [24] was 2090 pg/mL and the IFN-γ production (donor X); antibody 1 µg/ml, N = 2 [24] was 2070 pg/mL. The IFN-γ production (donor X); antibody 10 µg/ml, N = 1 [24] was 2030 pg/mL, the IFN-γ production (donor X); antibody 10 µg/ml, N = 2 [24] was 2020 pg/mL and the IFN-γ production (donor X); antibody '0' (4th head as printed), N = 1 [24] was 2260 pg/mL. For the same substance, the IFN-γ production (donor X); antibody '0' (4th head as printed), N = 2 [24] was 1900 pg/mL, the IFN-γ production (donor X); antibody '0' (5th head as printed), N = 1 [24] was 2000 pg/mL and the IFN-γ production (donor X); antibody '0' (5th head as printed), N = 2 [24] was 2320 pg/mL. It also gave an OD450 [25] of 0.13, an OD450 [26] of 0.15 and a Mean fluorescence intensity [27] of 6. The Mean fluorescence intensity [28] was 2.8 and the Mean fluorescence intensity [29] was 3.1.
